The values below come from publication PMC5708776, “Crystal structure of a tripartite complex between C3dg, C-terminal domains of factor H and OspE of Borrelia burgdorferi” (PLoS ONE, 2017).

The assay addresses T1, C3dg (residues 955 to 1303 of complement C3), C1010A (UniProt P01024 955-1303, C1010A).
T1 construct: complement C3, C3dg fragment, residues 955-1303; C1010A prevents thioester formation; a second change (printed A1153E) was made to reverse a mutation of the original gene, so that the natural residue stands at 1153; The His6 tag was moved from the N-terminus to the C-terminus (TEV-His6) and removed with TEV protease; residues of the TEV site probably remain at the C-terminus; also called C3dg …
The experiment in a line: crystal structure; three purified proteins mixed at a 1:1:1 molar ratio before crystallisation at 20 °C (PEG 3350, Hepes pH 7.5 or Tris pH 8.5); 3.18 Å; three heterotrimers in the asymmetric unit. Conditions: both partners purified.

T1 sequence (P01024 955-1303 C1010A): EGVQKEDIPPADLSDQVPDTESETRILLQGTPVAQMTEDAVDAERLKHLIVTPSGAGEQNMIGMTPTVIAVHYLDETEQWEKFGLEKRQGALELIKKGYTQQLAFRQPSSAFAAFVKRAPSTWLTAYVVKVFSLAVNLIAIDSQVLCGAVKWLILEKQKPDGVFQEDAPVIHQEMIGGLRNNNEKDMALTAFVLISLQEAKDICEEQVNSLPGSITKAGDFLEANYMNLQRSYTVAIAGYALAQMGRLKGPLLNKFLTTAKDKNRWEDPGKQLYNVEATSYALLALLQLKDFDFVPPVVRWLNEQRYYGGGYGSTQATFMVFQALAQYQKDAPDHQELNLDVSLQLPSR

B1: C-terminal domains 19-20 of human factor H (FH19-20), wild type (domain or fragment)
chain: KDSTGKCGPPPPIDNGDITSFPLSVYAPASSVEYQCQNLYQLEGNKRITCRNGQWSEPPKCLHPCVISREIMENYNIALRWTAKQKLYSRTGESVEFVCKRGYRLSSRSHTLRTTCWDGKLEYPTCAKR
notes: human complement factor H, domains (SCRs) 19-20; also called C-terminus of human factor H
Take B1: the binding result was “binds”.
